Protein production data for 16 sequences are collected here from a protein production outcome set (Wang et al. 2014).

The series in a line: label from the status in PepcDB records.

In the case of “MKNPAEIDVADQQRLESMAVGGLIGFRTLLYKEVLRFWKVSFQTVAAPVLTAVLYLLIFGHVLEDRVRVYDQISYTAFLVPGLVMMSVLQNAFANSSSSLIQSKITGNLVFILLPPLSHWEMFGAYVVASIIRGLCVGLGVLLVTAWFANLHFAHIGWILVFGLMGAGILGTLGLIAGIWAEKFDQLAAFQNFLIMPATFLSGVFYSIHSLPAFWQAVSHANPFFYMIDGFRYGFFGVSDVPPLQSLAVVVVAFVVLAALALRLLRNGYKLRY”, the protein production result is “failed”.
On to “MKNQFVKCISQLLFLLLIIGVLPVYAQKKSKEKIYRLPDDLETLAGDPALLKKPEGLTVAAYAFPNYHASALHNKIYSQGWTEYNLIRSARPWFEGHQQPRTPLLGELDESKPSTWETYNKLCKQSGIDVLIWDWYWYDGKPCLHEALENGFLEASNTKDVKFACMWTNHPWYVLYPTKRTDGSNAYPPSFDAPDFSKEECWKSLSYMISRYCHLENYWRIDDKPVICIWDARRLESKLGIAGVKQLFAELTDYAKKLGHKGLHFHVTGFSCGNMKEEGYDTVGSYNPMDWIAGRFQPKEIELPDYGTVAADVAFKLWDEHHGQFDIPYVPAVAPGWDSTPRYIAPANRPAKADRSQWPGCTIFKNENPASFKAFVQSSFVYLNKHPEVPRILTIACFNEWSEGHYLLPDNRFGYGMLDALGEALGKEGNHEKHGKLEHHHHHH”, for which the protein production entry is reported as “not failed”.
With “MKNQSPVPSYEGNVFMIDARDLSIAWSEDSNHWTWLPLPNQNSNTILSSESVMEIAFLKSASWLDVAGKFDTRYLTPRTRYEVVFVVKLEYTFEWETLVKLKLDLPNTWEKPQEQSVDMFDYISDQWLDIPVGEFTTSKKNVGEISFAMYEHECQLWKSGLFVKGVTIRPKY”, the protein production entry is recorded as “failed”.
For the sequence “MKPALVVVDMVNEFIHGRLATPEAMKTVGPARKVIETFRRSGLPVVYVNDSHYPDDPEIRIWGRHSMKGDDGSEVIDEIRPSAGDYVLEKHAYSGFYGTNLDMILRANGIDTVVLIGLDADICVRHTAADALYRNYRIIVVEDAVAARIDPNWKDYFTRVYGATVKRSDEIEGMLQEDQIET”, the protein production result is listed as “not failed”.
Turning to “MKPIQLPLSVRLRDDATFANYYPGANAAALGYVERLCEAEAGWAESLIYLWGHDGVGRSHLLQAACLRFEQFEERTIYLPMADLVQYGPEIFDDLEQCELVCIDDLDVLVGKREWEEGLFHLFNRLRDTGRRLLLAASKSPRELQVKLPDLKSRLTMALIFQLHGLSDEDKLRALQLRASRRGLHLTDEVGRFILNRGSRSMNSLFDLLEQLDRASLQAQRKLTIPFLKETLGWLEHHHHHH”, the protein production result is “not failed”.
With “MKPLRKIRLGIVGCGIAARELHLPALKNLSHLFEITAVTSRTRSHAEEFAKMVGNPAVFDSYEELLESGLVDAVDLTLPVELNLPFIEKALRKGVHVICEKPISTDVETGKKVVELSEKSEKTVYIAENFRHVPAFWKAKELVESGAIGDPVFMNWQIWVGMDENNKYVHTDWRKKPKHVGGFLSDGGVHHAAAMRLILGEIEWISAVAKDLSPLLGGMDFLSSIFEFENGTVGNYTISYSLKGNERFEITGTKGKISISWDKIVLNEEEMKVPQENSYQKEFEDFYQVVAEGKPNDLGSPVQALKDLAFIEACVRSAGNKVFVSSLL”, the protein production result is given as “not failed”.
For the sequence “MKPMEAAMGLIRFCLLFLALATPVNAAKLFLTTEVYPPYNLQASDGSVHGVYFDQLKIVLQDTDTDYEVAVMPWARAIALATTQAMHCVFATARTPEREKLFKWVAPIHTDRNILVARREANIEASSLEDARRYRVGTQRGDYTEALLEKLGFPQVDVGADFEITLNKLKLGRIDLMPMSESTLKSLPANSFKEVITLSRQQLGLACNKTVPDQIIAKLQARLDKLIADGTQQQIFDRYSLVSP”, the protein production entry was “failed”.
Consider “MKPSLIYMYNINKKQIIISLLSFIFVVAVAFVSLGNYIKQESGEVRQTIIVAFVILVYITFLAMIVIQAVSAFGKMTESTLFRLTSISGKKIVLAILLYAVIYLLIFELIGSIFLYGISMKIIKGTELYEVLFTQSVFNPLKHLFSTMLYVFNLSSILLVLLFSVASVKVFSLKKKKLKYPMVFFLFLLVTKLLGTIYGMLGGLAPAAPLIKKLVYIDESSGADVFLYPEKLMNLYSLSFSIGIFILLVYITGRIIDKKLEV”, for which the protein production entry is on record as “failed”.
With “MKPTLFVLAAGMGSRYGSLKQLDGIGPGGDTIMDYSVYDAIRAGFGRLVFVIRHSFEKEFREKILTKYEGRIPVELVFQELDRLPEGFSCPEGREKPWGTNHAVLMGRDAIREPFAVINADDFYGRNGFEVLARKLMTLEGKQGEYCMVGYRVGNTLSESGGVSRGVCQVDEKHLLTGVVERTGIERTDGTISFRDETGKICTLAEDAPVSMNMWGFTPDYFDYSEELFINFLNAHGQEPKSEFFIPFVVNDLIRSGRASVEVLDTTARWFGVTYSDDRPGVVAKLRELTEAGEYPTKLF”, the protein production result is listed as “not failed”.
For the sequence “MKPTLFVLAAGMGSRYGSLKQLDGIGPGGDTIMDYSVYDAIRAGFGRLVFVIRHSFEKEFREKILTKYEGRIPVELVFQELDRLPEGFSCPEGREKPWGTNHAVLMGRDAIREPFAVINADDFYGRNGFEVLARKLMTLEGKQGEYCMVGYRVGNTLSESGGVSRGVCQVDEKHLLTGVVERTGIERTDGTISFRDETGKICTLAEDAPVSMNMWGFTPDYFDYSEELFINFLNAHGQEPKSEFFIPFVVNDLIRSGRASVEVLDTTARWFGVTYSDDRPGVVAKLRELTEAGEYPTKLFLEHHHHHH”, the protein production entry is “not failed”.
To “MKQAIGFIDSGVGGLTVVREVLKQLPHEQVYYLGDTARCPYGPRDKEEVAKFTWEMTNFLVDRGIKMLVIACNTATAAALYDIREKLDIPVIGVIQPGSRAALKATRNNKIGVLGTLGTVESMAYPTALKGLNRRVEVDSLACPKFVSVVESGEYKSAIAKKVVAESLLPLKSTKIDTVILGCTHYPLLKPIIENFMGDGVAVINSGEETASEVSALLDYHNLLDATDEEIEHRFFTTGSTQIFKDIAKDWLNMPDMTVEHIKLGK” belongs “not failed”; to “MKQFVVISGKGGTGKTSVTAGLAAVGKDMVLADCDVDAADLHLVLAPEIRERHDFISGVVASIEPEACISCGLCTTHCRYGAIPQGYAPQVAPEHCEGCGVCAHVCPTGAARLSDRRCGEWYVSDTRFGPMVHAALGIGEENSGKLVSTVRTRARELAEARDASVVLIDGSPGVGCPVIASLAGADAALAVTEPTVSALHDLERVHALARHFDVRMAVLLNKADIHPGMAERIIGYCTTHDLPLVGRFGFSPLFVQAQLEGRTLPEQDSGEWRQRFNGVWNQLLALVLEHHHHHH”, “failed”.
For the sequence “MKQKDFFLYAVMSVFLGMQGCASSSDIKQNVGTSEIAHTKQTLQIAGLKHCNNEGNDSIHLNPDEPLTIIVHGCFSSAGRFETLADVYGLYDQQAICFEYDDRKSLEDTSGELVAALNQLSTQNPNQDLHVIGHSQGGLVARRALTSEREDQQTVTAKKVQLTTVSSPFNGIEISSHCGITPLRILSLGIVDLICYAVTGEKYQQIPPNADFIEQPGDLVASVSQHLVIKTDERNSCRKENDKGECIEDDYVFSVNEQSNNQVDDGVNTDLVTVKAGHVEIVGNGESVPTDLINILKQKEVLVDKSGVDEQKQGYLINQLYFD”, the protein production entry is “failed”.
On to “MKQPFERILREICFMVKVEGRKVLRDFGITPAQFDILQKIYFEGPKRPGELSVLLGVAKSTVTGLVKRLEADGYLTRTPDPADRRAYFLVITRKGEEVIEKVIERRENFIEKITSDLGKEKSSKILDYLKELKGVMERNFSKQ”, for which the protein production entry is “not failed”.
In the case of “MKQQLESFIETTKPSALVADMFFPWATESAEKLGVPRLVFHGTSFFSLCCSYNMRIHKPHKKVATSSTPFVIPGLPGDIVITEDQANVAKEETPMGKFMKEVRESETNSFGVLVNSFYELESAYADFYRSFVAKRAWHIGPLSLSNRELGEKARRGKKANIDEQECLKWLDSKTPGSVVYLSFGSGTNFTNDQLLEIAFGLEGSGQSFIWVVRKNENQGDNEEWLPEGFKERTTGKGLIIPGWAPQVLILDHKAIGGFVTHCGWNSAIEGIAAGLPMVTWPMGAEQFYNEKLLTKVLRIGVNVGATELVKKGKLISRAQVEKAVREVIGGEKAEERRLWAKKLGEMAKAAVEEGGSSYNDVNKFMEELNGRK”, the protein production result is listed as “failed”.
In the case of “MKQRTLPAAFLLALSIASLAGCASPTVITLNDGREIQAVDTPKYDEDSGFYEFKQLDGKQTRINKDQVRTVKDLLEHHHHHH” it was “failed”.
